The data set can be described thus: yeast display, Sf9 membrane polyspecificity reagent, FACS + sequencing; frameworks hold sequencing errors. In a few lines:
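Nanobodies from a synthetic yeast display library (Saccharomyces cerevisiae BJ5465), induced 36–48 hours with galactose, were stained 1 hour at 4 °C with 10% biotinylated, detergent-solubilized Sf9 membrane reagent, enriched on streptavidin microbeads, then FACS-sorted. Anti-HA (expression) and streptavidin (reagent binding) fluorescence set low and high (top ~1%) gates. Polyreactivity labels come from the gate of origin. Genes were colony-PCR amplified, MiSeq 2 × 250 sequenced and filtered by CDR length.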
As to “QVQLVESGGGLVQAGGSLRLSCAASGFTFVYYAMGWYRQAPGKERELVAAISRGGSTYYADSVKGRFTISRDNAKNTVYLQMNCLKPVDTAVYYCNAKKSGHYVSYPAYDYWGQGTQVTVSS”, the “polyreactivity (PSR sort gate)” value is recorded as “low polyreactivity”.
Take “QVQLVESGGGLVQAGGSLRLSCAASGFTFVYYAMGWYRQAPGKERELVATITRSGDSTYYADSVKGRFTISRDNAKNTVYLQMNSLKPEDTAVYYCAAQPGTASYAGDGDSWGQGTQVTVSS”: the “polyreactivity (PSR sort gate)” value is given as “low polyreactivity”.
As for “QVQLVESGGGLVQAGGSLRLSCAASGFTFWANAMGWYRQAPGKERELVAAISWSGGSTTYADSVKGRFTISRDNAKNTVYLQMNSLKPEDTAVYYCATDYGHYVTYRLSDYWGQGTQVTVSS”, the “polyreactivity (PSR sort gate)” value was “low polyreactivity”.
For the sequence “QVQLVESGGGLVQAGGSLRLSCAASGFTFWAYAMGWYRQAPGKERELVAPISWSGGITYYADSVKGRFTISRDNAKNTVYLQMNSLKPEDTAVYYCAADPYVLVWVEDYDYWVQGTQVTVSS”, the “polyreactivity (PSR sort gate)” value was “high polyreactivity”.
“QVQLVESGGGLVQAGGSLRLSCAASGFTFWGNAMGWYRQAPGKEREMVAAITDTGSTNYADSVKGRCTISRDNAKNTVYLQMNSLKPEDTAVYYCAKDKAYYDWGQTNGYWGQGTQVTVSS”: the “polyreactivity (PSR sort gate)” value was “low polyreactivity”.
Consider “QVQLVESGGGLVQAGGSLRLSCAASGFTFWGYAMGWYRQAPGKERELVAGITRSGGNTYYADSVKGRFTISRDNAKNTVYLEMNSLKPEDSAVYYCAKRHFWNLTPYYFYRTIPDYYWGQGTQVTVSS”, for which the “polyreactivity (PSR sort gate)” value is reported as “high polyreactivity”.
As to “QVQLVESGGGLVQAGGSLRLSCAASGFTFWIYAMGWYRQAPGKERELVAVISRGGSTYYADSVKGRFTISRDNAKNTVYLQMNSMKPEDTAVYYCNAVGVRGYDYWGQGTQVTVSS”, the “polyreactivity (PSR sort gate)” value was “high polyreactivity”.
Then “QVQLVESGGGLVQAGGSLRLSCAASGFTFWKYTMGWYRQAPGKERELVAAITNSGTSTYYADSVKGRFTISRDNAKNTVYLQMNSLKPEDTAVYYCARDNEPDYYSYPYDYWGQGTQVTVSS”, with “low polyreactivity”.
Then “QVQLVESGGGLVQAGGSLRLSCAASGFTFWLYAMGWYRQATGKEREFVAAISTSGGSTYADSVKGRFTISRDNAKNTVYLQMNSLKPEDTAVYYCNAGYLLYYDYHLFYWGQGTQVTVSS”, with “low polyreactivity”.
Then “QVQLVESGGGLVQAGGSLRLSCAASGFTFWPYAMGWYRQAPGKERELVAAITWSGGRTYYADSVKGRFTISRDNAKNTVYLQMNSLKPEDTAVYYCNVDAYGYRPYRYYYWGQGTQVTVSS”, with “high polyreactivity”; and “QVQLVESGGGLVQAGGSLRLSCAASGFTFWQYTMGWYRQAPGKERDFVASITSGVSTYYADSVKGSFTISRENAKNTVYLQMNSVKPEDTAVYYCAAYYYRRYLRGFFENWGQGTQVTVSS”, with “high polyreactivity”; and “QVQLVESGGGLVQAGGSLRLSCAASGFTFWRNTMGWYRQEPGKERELVAGISGSGGSTYYADSVKGRFTSSRDNAKNTVYLQMNSLKPEDTAVYYCAKEPNVGTWRRWRYNYCGQGTQVTVSS”, with “high polyreactivity”.
For “QVQLVESGGGLVQAGGSLRLSCAASGFTFWRNVMGWYRQAPGKERELVAVISRGGSTNYADSVKGRFTISRDNAKNTVYLQMNRLKPEDTAVYYCPKYARGPSKVDYWGQGTQVTVSS”, the “polyreactivity (PSR sort gate)” value is on record as “high polyreactivity”.
The value for “QVQLVESGGGLVQAGGSLRLSCAASGFTFWRYAKGWYRHAPGKERELVAAISSGGSTNYADSVKGRFTISRDNAKNTVYIQMNSLKPEDTAVYYCNARYYHKRSTRVIFPYDYWGQGTQVTVSS” was “high polyreactivity”; that for “QVQLVESGGGLVQAGGSLRLSCAASGFTFWRYAMGWYRQAPGKERELVAAISRSGGGTYYADSVKGRFTISRDNAKNTVYLQMNSLKPEDTAVYYCAAALYKGSGELDYWGQGTQVTVSS” was “high polyreactivity”; that for “QVQLVESGGGLVQAGGSLRLSCAASGFTFWRYAMGWYRQAPGKERELVAAISWRGSSTYYADSVKGRFTISRDNAKNTVYLQMNSLKPEDSAVYYCAARYITFNGYGYGYWGQGTQVTVSS” was “high polyreactivity”.
